T1: FcγRIIb extracellular domain with C-terminal His tag (human, UniProt P31994 43-217)
T1 construct: extracellular domain; Soluble receptor expressed in FreeStyle293 cells and used as analyte in Biacore; also called FcgRIIb; 2b; not shown: His tag at the C terminus
T1 sequence (looked up): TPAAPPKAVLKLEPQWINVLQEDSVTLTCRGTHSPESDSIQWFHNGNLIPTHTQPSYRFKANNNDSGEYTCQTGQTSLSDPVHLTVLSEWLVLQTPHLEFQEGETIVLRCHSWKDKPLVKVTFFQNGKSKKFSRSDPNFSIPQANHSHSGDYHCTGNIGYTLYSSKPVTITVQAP


Key:
[1] = target: T1, FcγRIIb extracellular domain with …; assay: SPR (Biacore), antibody captured on antigen-peptide chip, FcγR as analyte; relative binding amount
Experimental: (§1) The heterodimerized antibodies He Abs in which one of the H chains was introduced with an alteration were assayed for their binding activities to each activating FcγR and inhibitory FcγR according to the method described in Example 4. […] The activating FcγRs in FIGS. 26, 27, 28, and 29 are FcγRIa, FcγRIIa (R), FcγRIIa (H), and FcγRIIIa, respectively.
(§2) Analysis of interaction between objective antibody and the FcγR was carried out using Biacore T100 (GE Healthcare). HBS-EP+ (GE Healthcare) was used as the running buffer, and the measurement temperature was set to 25° C. Chips produced by immobilizing the antigen peptide by the amine coupling method to a Series S Sencor Chip CM5 (GE Healthcare), or alternatively, chips produced by allowing preliminarily biotinylated antigen peptides to interact with and immobilize onto a Series S Sensor Chip SA (certified) (GE Healthcare) were used. Antibodies of interest were captured onto an antigen peptide-immobilized chip, and allowed to interact to each FcγR diluted with running buffer. To regenerate and repeatedly use the chip, the antibodies captured on the chip were washed off by reacting 10 mM glycine-HCl, pH 1.5.

[2] = target: T2, FcγRIIIa extracellular domain with C-terminal His tag (human, UniProt P08637 17-208); assay: as above
T2 construct: extracellular domain; also called FcgRIIIa; 3a; not shown: His tag at the C terminus
Experimental: as §1, §2

[3] = target: T2, FcγRIIIa extracellular domain with …; assay: SPR (Biacore); He/Con for FcγRIIIa divided by He/Con for FcγRIIb
Experimental: as §1, §2

[4] = target: T3, FcgRIIIa F (FcγRIIIa type F) extracellular domain with C-terminal His tag (human, UniProt P08637 17-208); assay: SPR (Biacore); relative binding activity of the heterodimerized antibody with the alteration in one H chain
T3 construct: extracellular domain; also called FcγRIIIa F; 3aF; not shown: His tag attached to the C terminus
T3 sequence (P08637 17-208): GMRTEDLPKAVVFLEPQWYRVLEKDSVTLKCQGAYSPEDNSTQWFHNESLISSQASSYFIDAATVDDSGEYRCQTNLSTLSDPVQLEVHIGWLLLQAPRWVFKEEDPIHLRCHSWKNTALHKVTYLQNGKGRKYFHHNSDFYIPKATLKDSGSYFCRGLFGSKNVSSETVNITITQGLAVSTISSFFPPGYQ

T2 sequence (P08637 17-208): as above

Row | He/Con_2b (IIb binding) [1] | He/Con_3a (IIIa binding) [2] | He_3a/2b (IIIa/IIb) [3] [ratio] | He/Con_3aF [4] | Binder
1 | 84.9 relative, GpH7-A5/GpH7-B3/GpL16-k0 = 100 | 111 relative, GpH7-A5/GpH7-B3/GpL16-k0 = 100 | 1.31 |  | GpH7-A5/GpH7-B3 variant I336_02A/GpL16-k0 (antibody, human IgG1, kappa, Heterodimerized anti-glypican-3 IgG1 (He Ab); The mutation is in the GpH7-B3 chain only; also called He Ab with I336A in GpH7-B3) heavy 1: not shown heavy 2: not shown light: DIVMTQSPLSLPVTPGEPASISCQASESLVHSNRNTYLHWYLQKPGQSPQLLIYKVSNRFSGVPDRFSGSGSGTDFTLKISRVEAEDVGVYYCSQNTHVPPTFGQGTKVEIERTVAAPSVFIFPPSDEQLKSGTASVVCLLNNFYPREAKVQWKVDNALQSGNSQESVTEQDSKDSTYSLSSTLTLSKADYEKHKVYACEVTHQGLSSPVTKSFNRGEC
2 |  |  |  | 195 % of GpH7-A5/GpH7-B3/GpL16-k0 (= 100) | GpH7-A5/GpH7-B3 variant (H268D)/GpL16-k0 (antibody, human IgG1, kappa, also called He Ab H268_09D) heavy 1: not shown heavy 2: not shown light: DIVMTQSPLSLPVTPGEPASISCQASESLVHSNRNTYLHWYLQKPGQSPQLLIYKVSNRFSGVPDRFSGSGSGTDFTLKISRVEAEDVGVYYCSQNTHVPPTFGQGTKVEIERTVAAPSVFIFPPSDEQLKSGTASVVCLLNNFYPREAKVQWKVDNALQSGNSQESVTEQDSKDSTYSLSSTLTLSKADYEKHKVYACEVTHQGLSSPVTKSFNRGEC
3 | 68.2 relative, GpH7-A5/GpH7-B3/GpL16-k0 = 100 | 87.3 relative, GpH7-A5/GpH7-B3/GpL16-k0 = 100 | 1.28 |  | GpH7-A5/GpH7-B3 variant I336_15Y/GpL16-k0 (antibody, human IgG1, kappa, Heterodimerized anti-glypican-3 IgG1 (He Ab); The mutation is in the GpH7-B3 chain only; also called He Ab with I336Y in GpH7-B3) heavy 1: not shown heavy 2: not shown light: DIVMTQSPLSLPVTPGEPASISCQASESLVHSNRNTYLHWYLQKPGQSPQLLIYKVSNRFSGVPDRFSGSGSGTDFTLKISRVEAEDVGVYYCSQNTHVPPTFGQGTKVEIERTVAAPSVFIFPPSDEQLKSGTASVVCLLNNFYPREAKVQWKVDNALQSGNSQESVTEQDSKDSTYSLSSTLTLSKADYEKHKVYACEVTHQGLSSPVTKSFNRGEC
4 | 114 relative, GpH7-A5/GpH7-B3/GpL16-k0 = 100 | 181 relative, GpH7-A5/GpH7-B3/GpL16-k0 = 100 | 1.58 |  | GpH7-A5/GpH7-B3 variant K334_10E/GpL16-k0 (antibody, human IgG1, kappa, Heterodimerized anti-glypican-3 IgG1 (He Ab); The mutation is in the GpH7-B3 chain only; also called He Ab with K334E in GpH7-B3) heavy 1: not shown heavy 2: not shown light: DIVMTQSPLSLPVTPGEPASISCQASESLVHSNRNTYLHWYLQKPGQSPQLLIYKVSNRFSGVPDRFSGSGSGTDFTLKISRVEAEDVGVYYCSQNTHVPPTFGQGTKVEIERTVAAPSVFIFPPSDEQLKSGTASVVCLLNNFYPREAKVQWKVDNALQSGNSQESVTEQDSKDSTYSLSSTLTLSKADYEKHKVYACEVTHQGLSSPVTKSFNRGEC
5 | 115 relative, GpH7-A5/GpH7-B3/GpL16-k0 = 100 | 141 relative, GpH7-A5/GpH7-B3/GpL16-k0 = 100 | 1.23 |  | GpH7-A5/GpH7-B3 variant K334_14T/GpL16-k0 (antibody, human IgG1, kappa, Heterodimerized anti-glypican-3 IgG1 (He Ab); The mutation is in the GpH7-B3 chain only; also called He Ab with K334T in GpH7-B3) heavy 1: not shown heavy 2: not shown light: DIVMTQSPLSLPVTPGEPASISCQASESLVHSNRNTYLHWYLQKPGQSPQLLIYKVSNRFSGVPDRFSGSGSGTDFTLKISRVEAEDVGVYYCSQNTHVPPTFGQGTKVEIERTVAAPSVFIFPPSDEQLKSGTASVVCLLNNFYPREAKVQWKVDNALQSGNSQESVTEQDSKDSTYSLSSTLTLSKADYEKHKVYACEVTHQGLSSPVTKSFNRGEC
6 | 90.3 relative, GpH7-A5/GpH7-B3/GpL16-k0 = 100 | 112 relative, GpH7-A5/GpH7-B3/GpL16-k0 = 100 | 1.24 |  | GpH7-A5/GpH7-B3 variant I336_03V/GpL16-k0 (antibody, human IgG1, kappa, Heterodimerized anti-glypican-3 IgG1 (He Ab); The mutation is in the GpH7-B3 chain only; also called He Ab with I336V in GpH7-B3) heavy 1: not shown heavy 2: not shown light: DIVMTQSPLSLPVTPGEPASISCQASESLVHSNRNTYLHWYLQKPGQSPQLLIYKVSNRFSGVPDRFSGSGSGTDFTLKISRVEAEDVGVYYCSQNTHVPPTFGQGTKVEIERTVAAPSVFIFPPSDEQLKSGTASVVCLLNNFYPREAKVQWKVDNALQSGNSQESVTEQDSKDSTYSLSSTLTLSKADYEKHKVYACEVTHQGLSSPVTKSFNRGEC
7 | 89.5 relative, GpH7-A5/GpH7-B3/GpL16-k0 = 100 | 108 relative, GpH7-A5/GpH7-B3/GpL16-k0 = 100 | 1.21 |  | GpH7-A5/GpH7-B3 variant I336_14T/GpL16-k0 (antibody, human IgG1, kappa, Heterodimerized anti-glypican-3 IgG1 (He Ab); The mutation is in the GpH7-B3 chain only; also called He Ab with I336T in GpH7-B3) heavy 1: not shown heavy 2: not shown light: DIVMTQSPLSLPVTPGEPASISCQASESLVHSNRNTYLHWYLQKPGQSPQLLIYKVSNRFSGVPDRFSGSGSGTDFTLKISRVEAEDVGVYYCSQNTHVPPTFGQGTKVEIERTVAAPSVFIFPPSDEQLKSGTASVVCLLNNFYPREAKVQWKVDNALQSGNSQESVTEQDSKDSTYSLSSTLTLSKADYEKHKVYACEVTHQGLSSPVTKSFNRGEC
8 |  |  |  | 144 % of GpH7-A5/GpH7-B3/GpL16-k0 (= 100) | GpH7-A5/GpH7-B3 variant (A330F)/GpL16-k0 (antibody, human IgG1, kappa, also called He Ab A330_04F) heavy 1: not shown heavy 2: not shown light: DIVMTQSPLSLPVTPGEPASISCQASESLVHSNRNTYLHWYLQKPGQSPQLLIYKVSNRFSGVPDRFSGSGSGTDFTLKISRVEAEDVGVYYCSQNTHVPPTFGQGTKVEIERTVAAPSVFIFPPSDEQLKSGTASVVCLLNNFYPREAKVQWKVDNALQSGNSQESVTEQDSKDSTYSLSSTLTLSKADYEKHKVYACEVTHQGLSSPVTKSFNRGEC
